In this test the target is HA-SOK-1 (human).

With “catalytic subunit of protein phosphatase 2A (enzyme)”, the SOK-1 kinase activity was 40%.

These data come from US5830699.
